Assay in all cases: native MS; 3 to 4.5 uM purified P dimers, buffer exchanged to ammonium acetate (GII.10 Vietnam 125 mM; GII.17 Kawasaki and GII.4 Saga 300 mM; GII.4 MI001 250 mM) pH 7.5; nano-ESI, positive ion mode, 25 °C; monomer-dimer
The target of data set [1] is GII.4 MI001 P domain (VP1 residues 225-530), wildtype N373 (human norovirus GII.4 MI001).
The target in data set [2] is GII.10 Vietnam 026 P domain (VP1 residues 224-538) (human norovirus GII.10 Vietnam 026).
Data set [3] addresses GII.17 Kawasaki 308 P domain (VP1 residues 225-530) (human norovirus GII.17 Kawasaki 308).
Data set [4] deals with fully deamidated (iDiD) GII.4 Saga P domain (VP1 residues 225-530), N373 converted to iso-aspartate (human norovirus GII.4 Saga 2006) (UniProt B5BTR7).
In data set [5] the target is partially deamidated GII.4 MI001 P domain (VP1 residues 225-530), approximately 64% deamidated at N373 (human norovirus GII.4 MI001).
Data set [6] deals with the molecule itself.

One may read the stoichiometry N as a count of units in the complex or per binding partner. Turning to “GII.4 MI001 P domain (VP1 residues 225-530), wildtype N373 (domain or fragment)”, the stoichiometry N in data set [1] amounted to 2.

In data set [2], “GII.10 Vietnam 026 P domain (VP1 residues 224-538) (domain or fragment)” came in with a stoichiometry N of 2.

Take “GII.17 Kawasaki 308 P domain (VP1 residues 225-530) (domain or fragment)”: the stoichiometry N in data set [3] was found to be 2.

“fully deamidated (iDiD) GII.4 Saga P domain (VP1 residues 225-530), N373 converted to iso-aspartate (from UniProt B5BTR7 225-530) (domain or fragment)” gave a percent monomers in data set [4] of 32%.

On to “partially deamidated GII.4 MI001 P domain (VP1 residues 225-530), approximately 64% deamidated at N373 (domain or fragment)”, for which the percent monomers in data set [5] is 16%.

B1: GII.4 Saga 2006 P domain (VP1 residues 225-530), wildtype N373 (NN) (domain or fragment)
chain: GPGSKPFTVPILTVEEMTNSRFPIPLEKLFTGPSGAFVVQPQNGRCTTDGVLLGTTQLSPVNICTFRGDVTHIAGSRNYTMNLASLNWNNYDPTEEIPAPLGTPDFVGKIQGLLTQTTKGDGSTRGHKATVYTGSAPFTPKLGSVQFSTDTENDFETHQNTKFTPVGVIQDGSTTHRNEPQQWVLPSYSGRNVHNVHLAPAVAPTFPGEQLLFFRSTMPGCSGYPNMDLDCLLPQEWVQHFYQEAAPAQSDVALLRFVNPDTGRVLFECKLHKSGYVTVAHTGQHDLVIPPNGYFRFDSWVNQFYTLAPM
notes: major capsid protein VP1 of human norovirus GII.4 Saga 2006, protruding (P) domain, VP1 residues 225-530; also called GII.4 Saga P dimer; wildtype GII.4 Saga P domains; source: E. coli BL21(DE3), purified (Ni-NTA, HRV 3C cleavage, SEC; cation exchange to separate pure N373 wildtype); not shown: two His-tags, N-terminal, cleaved
In the case of B1, the “stoichiometry N” value in data set [6] was 2.

(Values after publication PMC8067865 (Molecules, 2021).)
